According to the supplement of paper PMC10567573:

B1: PBXIP1 (parent)
chain: FGEDGIFRHDRLRFRDFVDALEDS

Variants of: B1
Test: protein stability index of a GFP-peptide fusion (GPS, HEK-293T) (PSI 1-6); higher = more stable
Conditions: c terminus: a fixed tail appended
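Further: lentivirally expressed fusions sorted by FACS into six bins by GFP to DsRed ratio, PSI derived from sequencing read proportions per bin multiplied by bin number.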

Variant | protein stability index
FGEDGIFRHDRLIFRDFVDALEDS | 2.26
FGEDGIWRHDRLRFRDFVDALEDS | 1.95
FGEDGITRHDRLRFRDFVDALEDS | 2.71
FGEDGINRHDRLRFRDFVDALEDS | 4.02
FGEDGIRRHDRLRFRDFVDALEDS | 2.84
FGEDGIERHDRLRFRDFVDALEDS | 4.84
FGEDGIDRHDRLRFRDFVDALEDS | 4.33
FGEDGIMRHDRLRFRDFVDALEDS | 4.07
FGEDGIGRHDRLRFRDFVDALEDS | 3.7
FGEDGILRHDRLRFRDFVDALEDS | 3.13
FGEDGIYRHDRLRFRDFVDALEDS | 2.98
FGEDGIQRHDRLRFRDFVDALEDS | 3.36
FGEDGIHRHDRLRFRDFVDALEDS | 3.91
FGEDGIKRHDRLRFRDFVDALEDS | 3.38
FGEDGICRHDRLRFRDFVDALEDS | 2.95
FGEDGIIRHDRLRFRDFVDALEDS | 3.51
FGEDGIPRHDRLRFRDFVDALEDS | 3.88
FGEDGISRHDRLRFRDFVDALEDS | 2.97
FGEDGIVRHDRLRFRDFVDALEDS | 3.72
FGEDGIARHDRLRFRDFVDALEDS | 3.42
FGEDGIFRHDRLRFRPFVDALEDS | 2.27
FGEDGIFRHDRLRFRAFVDALEDS | 2.41
FGEDGIFRHDRLRFRNFVDALEDS | 1.89
FGEDGIFRHDRLRFRSFVDALEDS | 2.23

Variant | protein stability index
FGEDGIFRHDRLRFRFFVDALEDS | 2.12
FGEDGIFRHDRLRFRGFVDALEDS | 1.97
FGEDGIFRHDRLRFRCFVDALEDS | 3.01
FGEDGIFRHDRLRFRQFVDALEDS | 2.42
FGEDGIFRHDRLRFRRFVDALEDS | 2.36
FGEDGIFRHDRLRFRHFVDALEDS | 2.09
FGEDGIFRHDRLRFRLFVDALEDS | 1.55
FGEDGIFRHDRLRFRIFVDALEDS | 2.06
FGEDGIFRHDRLRFRKFVDALEDS | 1.99
FGEDGIFRHDRLRFREFVDALEDS | 3.17
FGEDGIFRHDRLRFRMFVDALEDS | 1.78
FGEDGYFRHDRLRFRDFVDALEDS | 2.24
FGEDGWFRHDRLRFRDFVDALEDS | 1.96
FGEDGIFRHDRLRFADFVDALEDS | 2.38
FGEDGIFRHDRLRFYDFVDALEDS | 2.22
FGEDGIFRHDRLRFKDFVDALEDS | 2.9
FGEDGIFRHDRLRFEDFVDALEDS | 3.61
FGEDGIFRHDRLRFNDFVDALEDS | 3.38
FGEDGIFRHDRLRFWDFVDALEDS | 1.97
FGEDGIFRHDRLRFTDFVDALEDS | 2.44
FGEDGIFRHDRLRFDDFVDALEDS | 2.87
FGEDGIFRHDRLRFMDFVDALEDS | 2.54
FGEDGIFRHDRLRFPDFVDALEDS | 3.36
FGEDGIFRHDRLRFCDFVDALEDS | 2.79

Variant | protein stability index
FGEDGIFRHDRLRFFDFVDALEDS | 2.68
FGEDGIFRHDRLRFLDFVDALEDS | 2.48
FGEDGIFRHDRLRFSDFVDALEDS | 2.54
FGEDGIFRHDRLRFIDFVDALEDS | 2.23
FGEDGIFRHDRLRFHDFVDALEDS | 2.48
FGEDGIFRHDRLRFVDFVDALEDS | 2.02
FGEDGIFRHDRLRFQDFVDALEDS | 3.06
FGEDGIFRHDRLRFGDFVDALEDS | 3.41
FGEDGIFDHDRLRFRDFVDALEDS | 3.74
FGEDGIFFHDRLRFRDFVDALEDS | 1.95
FGEDGIFVHDRLRFRDFVDALEDS | 2.93
FGEDGIFSHDRLRFRDFVDALEDS | 2.85
FGEDGIFKHDRLRFRDFVDALEDS | 2.23
FGEDGIFMHDRLRFRDFVDALEDS | 3.06
FGEDGIFWHDRLRFRDFVDALEDS | 2.05
FGEDGIFNHDRLRFRDFVDALEDS | 3.16
FGEDGIFGHDRLRFRDFVDALEDS | 2.93
FGEDGIFEHDRLRFRDFVDALEDS | 4.23
FGEDGIFLHDRLRFRDFVDALEDS | 2.55
FGEDGIFIHDRLRFRDFVDALEDS | 3.09
FGEDGIFYHDRLRFRDFVDALEDS | 2.46
FGEDGIFCHDRLRFRDFVDALEDS | 2.51
FGEDGIFTHDRLRFRDFVDALEDS | 2.48
FGEDGIFAHDRLRFRDFVDALEDS | 3.29

Variant | protein stability index
FGEDGIFHHDRLRFRDFVDALEDS | 2.65
FGEDGIFQHDRLRFRDFVDALEDS | 2.97
FGEDGIFPHDRLRFRDFVDALEDS | 3.8
FGEDGIFRHMRLRFRDFVDALEDS | 2.19
FGEDGIFRHNRLRFRDFVDALEDS | 2.83
FGEDGIFRHVRLRFRDFVDALEDS | 1.52
FGEDGIFRHARLRFRDFVDALEDS | 1.96
FGEDGIFRHFRLRFRDFVDALEDS | 2.16
FGEDGIFRHRRLRFRDFVDALEDS | 2.15
FGEDGIFRHQRLRFRDFVDALEDS | 1.86
FGEDGIFRHSRLRFRDFVDALEDS | 2.06
FGEDGIFRHERLRFRDFVDALEDS | 2.63
FGEDGIFRHWRLRFRDFVDALEDS | 1.74
FGEDGIFRHLRLRFRDFVDALEDS | 2.16
FGEDGIFRHYRLRFRDFVDALEDS | 1.79
FGEDGIFRHHRLRFRDFVDALEDS | 2.39
FGEDGIFRHCRLRFRDFVDALEDS | 1.85
FGEDGIFRHKRLRFRDFVDALEDS | 2.04
FGEDGIFRHPRLRFRDFVDALEDS | 1.85
FGEDGIFRHGRLRFRDFVDALEDS | 2.33
FGEDGIFRHTRLRFRDFVDALEDS | 2.07
FGEDGIFRHIRLRFRDFVDALEDS | 1.67
